Measurements from patent US20220049236A1.
One block for each substance: values may come before it.

Columns and labels:
HSP70 [1] = target: HSP70 (UniProt P0DMV8); test: ELISA, plate coated with HSP70
[2] = target: Heat shock 70 kDa protein 6/7 (human) (UniProt P17066); test: IP from HDF supernatant, LFQ mass spectrometry; ratio against Fc control
Nidogen-1 (human) [3] = target: Nidogen-1 (human) (UniProt P14543); test: as above
[4] = target: Heat shock 70 kDa protein 6/7 (human) (UniProt P17066); test: IP from HDF supernatant, LFQ mass spectrometry; ratio against the glycosylation mutant
Nidogen-1 (human) [5] = target: Nidogen-1 (human) (UniProt P14543); test: as above
HSP70 [6] = target: HSP70 (UniProt P0DMV8); test: ELISA, plate coated with HSP70, bound protein detected with peroxidase-conjugated anti-human antibody
[7] = target: LPD displayed on the surface of yeast cells (EBY100) (Saccharomyces cerevisiae; human) (UniProt P32781); test: flow cytometry of yeast cells displaying LPD, stained with Atto 633-labelled HSP70; the sample histogram is shifted to the right of the control histogram, whose Median RFU is printed as 26

Sequence of Heat shock 70 kDa protein 6/7 (human) (P17066 whole entry): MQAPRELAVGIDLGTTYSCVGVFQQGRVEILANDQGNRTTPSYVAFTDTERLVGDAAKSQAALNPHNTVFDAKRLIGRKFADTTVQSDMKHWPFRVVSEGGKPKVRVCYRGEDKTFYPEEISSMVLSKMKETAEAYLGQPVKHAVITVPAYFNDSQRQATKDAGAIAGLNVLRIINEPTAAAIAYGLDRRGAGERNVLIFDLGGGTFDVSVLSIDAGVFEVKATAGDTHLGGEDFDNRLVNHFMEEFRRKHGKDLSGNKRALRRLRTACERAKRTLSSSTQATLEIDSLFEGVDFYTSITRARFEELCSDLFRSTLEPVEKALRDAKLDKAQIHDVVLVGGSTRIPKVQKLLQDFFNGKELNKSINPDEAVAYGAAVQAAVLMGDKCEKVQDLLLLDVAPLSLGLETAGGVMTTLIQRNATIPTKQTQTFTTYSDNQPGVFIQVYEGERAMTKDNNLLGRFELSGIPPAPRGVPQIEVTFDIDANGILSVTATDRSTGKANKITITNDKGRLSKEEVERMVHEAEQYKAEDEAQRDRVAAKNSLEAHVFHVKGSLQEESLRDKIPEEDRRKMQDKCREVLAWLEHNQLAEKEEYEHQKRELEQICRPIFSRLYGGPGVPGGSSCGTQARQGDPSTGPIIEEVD
Sequence of Nidogen-1 (human) (P14543 29-1247 limits assumed): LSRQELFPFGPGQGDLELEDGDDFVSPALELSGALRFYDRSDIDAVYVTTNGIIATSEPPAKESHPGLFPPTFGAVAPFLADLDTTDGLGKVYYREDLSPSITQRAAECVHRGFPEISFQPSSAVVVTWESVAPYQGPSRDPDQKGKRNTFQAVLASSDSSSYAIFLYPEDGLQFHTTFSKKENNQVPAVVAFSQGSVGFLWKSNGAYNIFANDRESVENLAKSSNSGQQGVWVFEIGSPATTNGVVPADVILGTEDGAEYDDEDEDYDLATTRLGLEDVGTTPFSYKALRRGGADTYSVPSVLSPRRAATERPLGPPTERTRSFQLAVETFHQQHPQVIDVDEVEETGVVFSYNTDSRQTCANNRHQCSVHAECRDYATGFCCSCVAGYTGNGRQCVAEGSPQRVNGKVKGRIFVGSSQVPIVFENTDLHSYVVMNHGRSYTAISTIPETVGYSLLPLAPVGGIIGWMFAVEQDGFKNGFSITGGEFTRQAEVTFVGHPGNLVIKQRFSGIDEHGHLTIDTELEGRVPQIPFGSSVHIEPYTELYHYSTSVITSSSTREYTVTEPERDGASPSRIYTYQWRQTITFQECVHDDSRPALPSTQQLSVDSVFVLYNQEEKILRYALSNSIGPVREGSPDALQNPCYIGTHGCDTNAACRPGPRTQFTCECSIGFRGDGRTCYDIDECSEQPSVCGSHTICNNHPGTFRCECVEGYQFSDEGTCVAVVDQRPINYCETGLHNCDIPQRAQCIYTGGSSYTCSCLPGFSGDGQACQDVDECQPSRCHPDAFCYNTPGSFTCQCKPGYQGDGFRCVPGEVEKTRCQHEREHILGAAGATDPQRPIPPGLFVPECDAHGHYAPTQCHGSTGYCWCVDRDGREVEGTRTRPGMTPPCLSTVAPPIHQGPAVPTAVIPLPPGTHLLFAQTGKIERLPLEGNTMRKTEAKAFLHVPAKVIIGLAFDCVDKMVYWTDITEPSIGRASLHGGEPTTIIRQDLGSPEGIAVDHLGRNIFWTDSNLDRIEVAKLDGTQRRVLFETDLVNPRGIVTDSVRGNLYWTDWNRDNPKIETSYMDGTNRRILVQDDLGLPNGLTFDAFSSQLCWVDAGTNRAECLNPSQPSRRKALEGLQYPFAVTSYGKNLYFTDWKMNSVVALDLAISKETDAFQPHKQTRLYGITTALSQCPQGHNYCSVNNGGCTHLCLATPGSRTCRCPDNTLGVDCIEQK
Sequence of HSP70 (P0DMV8 whole entry): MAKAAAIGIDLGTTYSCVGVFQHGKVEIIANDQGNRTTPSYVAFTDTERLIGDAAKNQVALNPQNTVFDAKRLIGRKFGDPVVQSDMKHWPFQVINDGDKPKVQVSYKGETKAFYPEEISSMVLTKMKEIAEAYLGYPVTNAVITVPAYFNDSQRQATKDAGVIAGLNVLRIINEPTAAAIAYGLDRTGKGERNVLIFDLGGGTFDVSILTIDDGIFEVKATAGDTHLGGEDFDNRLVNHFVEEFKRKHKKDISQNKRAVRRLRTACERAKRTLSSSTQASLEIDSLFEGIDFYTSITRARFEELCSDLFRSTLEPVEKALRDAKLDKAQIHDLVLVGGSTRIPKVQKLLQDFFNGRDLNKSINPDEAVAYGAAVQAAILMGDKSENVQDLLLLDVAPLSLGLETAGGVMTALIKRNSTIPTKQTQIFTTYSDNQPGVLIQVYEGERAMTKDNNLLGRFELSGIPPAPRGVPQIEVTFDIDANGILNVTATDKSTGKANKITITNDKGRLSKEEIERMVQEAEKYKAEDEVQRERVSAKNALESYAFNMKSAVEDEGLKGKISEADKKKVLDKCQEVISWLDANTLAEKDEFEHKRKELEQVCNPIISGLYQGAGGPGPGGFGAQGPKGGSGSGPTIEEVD

EC50 (HSP70 [1]): 41 nM
Ratio Fc-LPD:Fc [2]: 78.4
Ratio Fc-LPD:Fc (Nidogen-1 (human) [3]): 9
Ratio Fc-LPD:Fc-LPDN346, 409, 456Q [4]: 0.4
Ratio Fc-LPD:Fc-LPDN346, 409, 456Q (Nidogen-1 (human) [5]): 0.7
EC50 (HSP70 [6]): 41 nM
Substance: Fc-LPD (lysyl oxidase prodomain fused to Fc antibody fragment) (Fc fusion)

Ratio Fc-LPD-N346, 409, 456Q:Fc [2]: 194
Ratio Fc-LPD-N346, 409, 456Q:Fc (Nidogen-1 (human) [3]): 13.7
Substance: Fc-LPD N346, 362, 409Q (from UniProt P28300 22-169) (Fc fusion)

Median RFU [7]: 130 RFU
Substance: HSP70 (from UniProt P0DMV8 1-641)
